To fix the notation:
T1: His-SND1 (16-339), SN1/2 domains, wild type (human, UniProt Q7KZF4 16-339)
T1 construct: also called His6-SND1 harboring the SN1/2 domains; not shown: N-terminal His tag (His6, His8 or His) with TEV site, pQlink vector
T1 sequence: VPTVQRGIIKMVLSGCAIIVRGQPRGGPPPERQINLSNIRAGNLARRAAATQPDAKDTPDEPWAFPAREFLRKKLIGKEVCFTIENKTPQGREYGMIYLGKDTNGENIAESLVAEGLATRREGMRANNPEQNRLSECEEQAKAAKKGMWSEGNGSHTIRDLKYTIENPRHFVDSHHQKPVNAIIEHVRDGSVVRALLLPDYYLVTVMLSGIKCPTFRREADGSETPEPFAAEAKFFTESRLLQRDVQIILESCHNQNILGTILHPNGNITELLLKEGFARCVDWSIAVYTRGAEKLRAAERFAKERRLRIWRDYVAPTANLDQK

T2: HA-SND1, full-length human, wild type (human, UniProt Q7KZF4 1-910)
T2 construct: Full-length, HA-tagged; Expressed in HEK293T cells, tested in lysate; also called HA-tagged SND1; WT HA-SND1
T2 sequence: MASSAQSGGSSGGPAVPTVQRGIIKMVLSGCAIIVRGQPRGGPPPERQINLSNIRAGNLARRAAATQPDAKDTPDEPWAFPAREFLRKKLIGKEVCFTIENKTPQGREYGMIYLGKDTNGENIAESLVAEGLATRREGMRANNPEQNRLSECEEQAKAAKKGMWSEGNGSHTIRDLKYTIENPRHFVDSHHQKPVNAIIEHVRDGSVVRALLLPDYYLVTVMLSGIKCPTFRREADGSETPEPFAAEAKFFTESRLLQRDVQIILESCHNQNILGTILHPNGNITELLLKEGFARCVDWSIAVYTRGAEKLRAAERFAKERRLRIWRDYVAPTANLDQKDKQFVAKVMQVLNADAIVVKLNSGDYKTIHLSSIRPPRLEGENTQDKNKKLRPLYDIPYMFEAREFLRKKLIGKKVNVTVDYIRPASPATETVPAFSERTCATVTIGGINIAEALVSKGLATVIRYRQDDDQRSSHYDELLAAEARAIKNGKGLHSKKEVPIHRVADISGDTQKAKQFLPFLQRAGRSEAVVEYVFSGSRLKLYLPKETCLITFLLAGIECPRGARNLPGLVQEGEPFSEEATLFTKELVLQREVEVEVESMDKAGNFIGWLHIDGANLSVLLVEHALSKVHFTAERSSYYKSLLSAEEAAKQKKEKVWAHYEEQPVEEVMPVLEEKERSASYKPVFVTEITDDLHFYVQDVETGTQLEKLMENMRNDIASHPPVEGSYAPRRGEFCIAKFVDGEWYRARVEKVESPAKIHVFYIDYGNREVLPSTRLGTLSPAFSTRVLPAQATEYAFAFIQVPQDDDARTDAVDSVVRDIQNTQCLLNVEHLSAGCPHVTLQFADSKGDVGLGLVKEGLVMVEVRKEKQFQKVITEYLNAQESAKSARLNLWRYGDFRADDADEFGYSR

B1: GST-MTDH (364-582) N403A (other)
chain: YQWDVSRNQPYIDDEWSGLNGLSSADPNSDWNAPAEEWGAWVDEERASLLKSQEPIPDDQKVSDDDKEKGEGALPTGKSKKKKKKKKKQGEDNSTAQDTEELEKEIREDLPVNTSKTRPKQEKAFSLKTISTSDPAEVLVKNSQPIKTLPPATSTEPSVILSKSDSDKSSSQVPPILQETDKSKSNTKQNSVPPSQTKSETSWESPKQIKKKKKARRET
notes: not shown: N-terminal GST tag with TEV site, pQlink vector
B2: GST-MTDH (364-582) W401D (other)
chain: YQWDVSRNQPYIDDEWSGLNGLSSADPNSDWNAPAEEDGNWVDEERASLLKSQEPIPDDQKVSDDDKEKGEGALPTGKSKKKKKKKKKQGEDNSTAQDTEELEKEIREDLPVNTSKTRPKQEKAFSLKTISTSDPAEVLVKNSQPIKTLPPATSTEPSVILSKSDSDKSSSQVPPILQETDKSKSNTKQNSVPPSQTKSETSWESPKQIKKKKKARRET
notes: as for B1
B3: Myc-MTDH D393R, full-length human (other)
chain: MAARSWQDELAQQAEEGSARLREMLSVGLGFLRTELGLDLGLEPKRYPGWVILVGTGALGLLLLFLLGYGWAAACAGSRKKRRSPPRKREEAAAVPAAAPDDLALLKNLRSEEQKKKNRKKLSEKPKPNGRTVEVAEGEAVRTPQSVTAKQPPEIDKKNEKSKKNKKKSKSDAKAVQNSSRHDGKEVDEGAWETKISHREKRQQRKRDKVLTDSGSLDSTIPGIENTITVTTEQLTTASFPVGSKKNKGDSHLNVQVSNFKSGKGDSTLQVSSGLNENLTVNGGGWNEKSVKLSSQISAGEEKWNSVSPASAGKRKAEPSAWSQDTGDANTNGKDWGRSWSDRSIFSGIGSTAEPVSQSTTSDYQWDVSRNQPYIDDEWSGLNGLSSADPNSRWNAPAEEWGNWVDEERASLLKSQEPIPDDQKVSDDDKEKGEGALPTGKSKKKKKKKKKQGEDNSTAQDTEELEKEIREDLPVNTSKTRPKQEKAFSLKTISTSDPAEVLVKNSQPIKTLPPATSTEPSVILSKSDSDKSSSQVPPILQETDKSKSNTKQNSVPPSQTKSETSWESPKQIKKKKKARRET
notes: Full-length, Myc-tagged; also called SPM12
B4: Myc-MTDH E407R, full-length human (other)
chain: MAARSWQDELAQQAEEGSARLREMLSVGLGFLRTELGLDLGLEPKRYPGWVILVGTGALGLLLLFLLGYGWAAACAGSRKKRRSPPRKREEAAAVPAAAPDDLALLKNLRSEEQKKKNRKKLSEKPKPNGRTVEVAEGEAVRTPQSVTAKQPPEIDKKNEKSKKNKKKSKSDAKAVQNSSRHDGKEVDEGAWETKISHREKRQQRKRDKVLTDSGSLDSTIPGIENTITVTTEQLTTASFPVGSKKNKGDSHLNVQVSNFKSGKGDSTLQVSSGLNENLTVNGGGWNEKSVKLSSQISAGEEKWNSVSPASAGKRKAEPSAWSQDTGDANTNGKDWGRSWSDRSIFSGIGSTAEPVSQSTTSDYQWDVSRNQPYIDDEWSGLNGLSSADPNSDWNAPAEEWGNWVDRERASLLKSQEPIPDDQKVSDDDKEKGEGALPTGKSKKKKKKKKKQGEDNSTAQDTEELEKEIREDLPVNTSKTRPKQEKAFSLKTISTSDPAEVLVKNSQPIKTLPPATSTEPSVILSKSDSDKSSSQVPPILQETDKSKSNTKQNSVPPSQTKSETSWESPKQIKKKKKARRET
notes: Full-length, Myc-tagged; also called SPM33
B5: Myc-MTDH W404D, full-length human (other)
chain: MAARSWQDELAQQAEEGSARLREMLSVGLGFLRTELGLDLGLEPKRYPGWVILVGTGALGLLLLFLLGYGWAAACAGSRKKRRSPPRKREEAAAVPAAAPDDLALLKNLRSEEQKKKNRKKLSEKPKPNGRTVEVAEGEAVRTPQSVTAKQPPEIDKKNEKSKKNKKKSKSDAKAVQNSSRHDGKEVDEGAWETKISHREKRQQRKRDKVLTDSGSLDSTIPGIENTITVTTEQLTTASFPVGSKKNKGDSHLNVQVSNFKSGKGDSTLQVSSGLNENLTVNGGGWNEKSVKLSSQISAGEEKWNSVSPASAGKRKAEPSAWSQDTGDANTNGKDWGRSWSDRSIFSGIGSTAEPVSQSTTSDYQWDVSRNQPYIDDEWSGLNGLSSADPNSDWNAPAEEWGNDVDEERASLLKSQEPIPDDQKVSDDDKEKGEGALPTGKSKKKKKKKKKQGEDNSTAQDTEELEKEIREDLPVNTSKTRPKQEKAFSLKTISTSDPAEVLVKNSQPIKTLPPATSTEPSVILSKSDSDKSSSQVPPILQETDKSKSNTKQNSVPPSQTKSETSWESPKQIKKKKKARRET
notes: Full-length, Myc-tagged; also called SPM31
B6: Myc-MTDH D406R, full-length human (other)
chain: MAARSWQDELAQQAEEGSARLREMLSVGLGFLRTELGLDLGLEPKRYPGWVILVGTGALGLLLLFLLGYGWAAACAGSRKKRRSPPRKREEAAAVPAAAPDDLALLKNLRSEEQKKKNRKKLSEKPKPNGRTVEVAEGEAVRTPQSVTAKQPPEIDKKNEKSKKNKKKSKSDAKAVQNSSRHDGKEVDEGAWETKISHREKRQQRKRDKVLTDSGSLDSTIPGIENTITVTTEQLTTASFPVGSKKNKGDSHLNVQVSNFKSGKGDSTLQVSSGLNENLTVNGGGWNEKSVKLSSQISAGEEKWNSVSPASAGKRKAEPSAWSQDTGDANTNGKDWGRSWSDRSIFSGIGSTAEPVSQSTTSDYQWDVSRNQPYIDDEWSGLNGLSSADPNSDWNAPAEEWGNWVREERASLLKSQEPIPDDQKVSDDDKEKGEGALPTGKSKKKKKKKKKQGEDNSTAQDTEELEKEIREDLPVNTSKTRPKQEKAFSLKTISTSDPAEVLVKNSQPIKTLPPATSTEPSVILSKSDSDKSSSQVPPILQETDKSKSNTKQNSVPPSQTKSETSWESPKQIKKKKKARRET
notes: Full-length, Myc-tagged; also called SPM32
B7: GST-MTDH (386-407), wild type (other)
chain: SSADPNSDWNAPAEEWGNWVDE
modifications: not fully specified (N-terminus)
notes: as for B1
B8: E400D/N403L (other)
fusion protein: SSADPNSDWNAPAEDWGLWVDE
notes: member of the group m64
B9: A396D (other)
fusion protein: SSADPNSDWNDPAEEWGNWVDE
notes: member of the group m64
B10: N395K (other)
fusion protein: SSADPNSDWKAPAEEWGNWVDE
notes: member of the group m64

Where no end group is shown, it is not given here.

One test deals with T1, His-SND1 (16-339), SN1/2 domains, wild …. Briefly: GST pull-down on glutathione resin, SDS-PAGE, Coomassie blue; normalised percentage of binding, mean±SEM of three experiments. The source says:
The proteins bound to GS4B were examined on SDS-PAGE and visualized by Coomassie blue staining. […] The bound proteins were examined as in (FIG. 22A). For both (FIG. 22A) and (FIG. 22B), experiments were repeated three times; representative results are shown. The normalized percentage of binding was averaged from three experiments; mean±SEM was shown below the data. (FIG. 22C) HEK293T cells were transfected with human HA-SND1, WT Myc-MTDH or Myc-MTDH with indicated single point mutation. Lysates were immunoprecipitated with anti-Myc antibody and immunoblotted with the indicated antibodies. (FIG. 22D) HEK293T cells were transfected with human Myc-MTDH, WT HA-SND1 or mutant HA-SND1 with indicated single point mutations or deletions. Lysates were immunoprecipitated with anti-Myc and immunoblotted with the indicated antibodies.
GST-Mediated Pull-Down Assay: ˜20 μg of GST-MTDH (different truncation forms and site mutants) was bound to 10 μl of glutathione resin via GST tag. The resin was washed with 200 μl assay buffer (25 mM Tris, PH8.0, 150 mM NaCl, 3 mM DTT) three times to remove the excess unbound protein. […] The mixture was washed with 200 μl assay buffer twice before examined by SDS-PAGE, and visualized by Coomassie blue staining. The experiments were repeated 3 times and the ratio of SND1 associated with GST-MTDH was analyzed by ImageJ.
Identification of MTDH and SND1 mutants deficient in binding: To gain insight into how the interface characterized above contributes to MTDH-SND1 interaction, structure-guided mutagenesis studies were performed.
B1: the “% Maximum binding” value is 68%.
For B2, the “% Maximum binding” value was determined as 46%.

Another test addresses T2, HA-SND1, full-length human, wild type. The test is described as follows: co-IP (anti-Myc) from HEK293T lysates, western blot.
Take B3: the binding result is “binds”.
On the same count and under the same terms, next, B4: “binds”.
As for B5, the binding result is on record as “binds”.
B6: the binding result is recorded as “binds”.

The target in a further test is T1, His-SND1 (16-339), SN1/2 domains, wild …. The test is described as follows: GST titration pull-down: GST-MTDH (386-407) on glutathione resin, SND1 (SN1/2) at 10, 3, 1, 0.5, 0.25, 0.12 (the sheet prints mM, paragraph 254 says µM), SDS-PAGE, Coomassie blue.
Regarding B7, the “Estimated Binding Affinity” value was ~1.2 µM.
On the same count and under the same terms, next, B8: ~0.9 µM; B9: ~1.5 µM; B10: ~0.8 µM.

The values above are taken from patent publication US20190336574A1 (TRUSTEES OF PRINCETON UNIVERSITY, published 2019).
